The values below come from the DeepSol protein solubility set.

This data set is described as follows: soluble on expression in E. coli; label from the status in PepcDB or PDB records.
As to “MKRDAKDHARNRLMNFYIKKAPTYSAIVKIEHFENDAPSEAKDFEPLVVYSLNKKKRWEINQEFLDSSSEGDDSKSVIIDREIPDLYFAWWSLGNVHSHDCVNHSKPVNSSQIDNAKKEEKVVGYHIVRVPKNHKKVFDNKCIRYIGLRYPEFLGYSSKDWPALQYEMKELEEEHEELEKENASLEAESTETTKPTGFYNLDEHFVAKKQRKPKGWLTVE”, the “soluble on expression in E. coli” value is on record as “not soluble”.

Take “MSLSTIREVAKLANVSIATVSRVLNNDTKYKMTEETKNRVLDAVTQLNYIPITTPRKKMTVTNSNICKDAKIGCILRVTKKGYNDPYYMSILAGVETQLREVGIELSFIKSAPILQDKSHLASTFSDSLDGLILMEPLNEDIYHYIKKRVPHVVGIDTLRDDIDDVGYDHLENGILATQHLIEKGHKEIGFIGGSGESQDIKDSKRYQGYVIAMHKAGLPIQKKWIIDCGWNEDECVAKVDALCKSNHYPTAFFAASDLMAMAAMKSFYTNGISVPKRVAVIGMSDIEMSQYSNPPLTTYHVPKEEIGRVATNLLLARIQGYETLPQKIILPTTFVERSSTEGHHHHHH”: the “soluble on expression in E. coli” value is “soluble”.

As to “MAIKNAFYAQSGGVTAVINASAAGLLETARAHSDKIGKVYAGRNGIIGALTEDLIDTSAESTEAIRALRHTPSGAFGSCRYKLKSLEDNRREYERLIEVFKAHDIGYFFYNGGGDSADTCLKVSQLAGTLGYPIQAIHVPKTVDNDLPITDCCPGFGSVAKYIAVSMLEASFDVASMAKTSTKVFILEVMGRHAGWIAAAGGLASNEDHEVPIIILFPEVTFDQEKFLAKTDHYVKEYGYCTVVVSEGVKGTDGKFLSDQGLRDAFGHAQLGGVAPVIANIVKNGLGLKYHWGVADYLQRAARHIASGTDVEQAYAMGKAAVEYAIAGHNSVMPTIERISSSPYAWKTGMVELSKVANVEKMMPADFISEDGFGITGKCREYLSPLIEGEDYPPYKNGLPDYVRLKNVAVTKKLAEFKILEHHHHHH”, the “soluble on expression in E. coli” value is “not soluble”.

Turning to “MAKKKKKKSFNVTRPTDPPVYPVTVPILGHIIQFGKSPLGFMQECKRQLKSGIFTINIVGKRVTIVGDPHEHSRFFLPRNEVLSPREVYSFMVPVFGEGVAYAAPYPRMREQLNFLAEELTIAKFQNFVPAIQHEVRKFMAANWDKDEGEINLLEDCSTMIINTACQCLFGEDLRKRLDARRFAQLLAKMESSLIPAAVFLPILLKLPLPQSARCHEARTELQKILSEIIIARKAAAVNKDSSTSDLLSGLLSAVYRDGTPMSLHEVCGMIVAAMFAGQHTSSITTTWSMLHLMHPANVKHLEALRKEIEEFPAQLNYNNVMDEMPFAERCARESIRRDPPLLMLMRKVMADVKVGSYVVPKGDIIACSPLLSHHDEEAFPEPRRWDPERDEKVEGAFIGFGAGVHKCIGQKFGLLQVKTILATAFRSYDFQLLRDEVPDPDYHTMVVGPTASQCRVKYIRRKAAAAHHHHHHHH”, the “soluble on expression in E. coli” value is “soluble”.

With “MGHHHHHHSHMTTPRSAPLYKLKSEDGQIFNVERGPMKFCAFINQKFIDHGVNDRNCERADPILVPFHSSIVQAVIEWLYHYQDNPLARRDSKIRYHDFSEWDKQFFNVESGVLFALLNASHALGVEDLMNMGCAAAAELIRGKSTEEIRKIYGIRSDEEQMEEALANGGEGTSAMTFTTDSD”, the “soluble on expression in E. coli” value is “soluble”.

With “MGSDKIHHHHHHMVSPVVARIIELLPDSCVGFIGKRILNMYLNKYADINVHGMENLKGIDKPIMFIGNHLSNSDGLVLNKVLKDYDVTFVAGVKLKGDAITNLGTYCVKTTEIKPNTADKDGIYRVIDILKSNHNILMFPEGTRSRTGAMIEAKRGPLFIAKLSKAIIVPVGICGSEKLLPINKEGNMSNENFHHAKVEVNIGKPFYFDKRMKEESKKDYEKRALDNAMYKIAELIPENYRGVYSDIKKVL”, the “soluble on expression in E. coli” value was “not soluble”.

In the case of “MSLKDKILTIDVGTGSTRAAIVRIDGAMIGFAQREYEQTTPRAGWSEQAPSLWWQAACDCIREVLYRYPETAAQIAVIGACGQMHGTVLLDDRGELVEDRALLWNDKRSQPQVDAFNAREGWEKWLAHLNNPPAAAWPAFKLAWWRENHPDRWSQLAKVLMPKDYINFMLTGAMATDYSEASCYFLMDSETRSWSSQACETFGLRVDQLPELKLSSDIIGQVTQPAADLTGLPAGIPVVAGTSDMAASLLGSGVYEPGMASDSTGTSTLMTVVSPRPLHHPLVNNLHLANAAWGGFTILDAGGDAVRWARLALADNQITHPQLLQEAAAVPAGAEGLLFLPYLTGERLAEHTNSRAQFFGLQRKHRRGHLFRAVLEGVAFASWRNLRQLQKCGQYPQQMIASGGGARSSLWLEIKASAYNLPILSTRNQENGVTGCGIIAGVGVGLYADFASGVRQTVQFEKLISPDPLLRDYYHACCELFDTLYRQSAALYDRLDALSEGHHHHHH”, the “soluble on expression in E. coli” value is listed as “soluble”.

Consider “MSPLWLVVFIVPLASGISLSDCSKKNSCYGSPVNCQPGIDCHVLLRFEDDGTLDVHLQNFTAPDGYVALAYNSNQNAPTEYLICIPHERKRLRGISSQGEIITITEQNMAQYVAQMDTNTFICSFVGKEIPSNFRMQSNFVVSEGLFANESNIPTTYKLEPISTDSVFFHPIAATIGRQDEALSEDEEKLATDLLGKVQRLSDHDSESTDMEAILNEKNRFTIEEFEEKLFSAMSNRRRPIKKFEREEEDQDDDEYSEVEEKESHPKKRREHKKGRHTRVLSDEQEEDYDQYEDDMPSKKRKRPFNSEELENGEDVDFGKKSNKNSQKGTFDGQRQR”, for which the “soluble on expression in E. coli” value is “not soluble”.

On to “MNQNDNRIFRKEDLDWKELETIGIHKEELEKSGDMELLLQGEETETVPLKIRTSALRLTMDATLRITVGTDGKPVMEINGISPEAESEAGG”, for which the “soluble on expression in E. coli” value was “not soluble”.

For “MDIPQDSYDLVVVGGGTSGVFAAISAARRGLRVALVEASGMLGGTLTQVTLGGICGAWTGTAHTQVVHGLFDEFVHAMRKAQACDGLYSYGHVTALPYEPVKVRYLLDQLLPPNVTAFFHSRLFAVDMEGERIARVHLAGVEGPFSLAARAYVDATGNASLVGLCATPLRRGENGTVQAASSMFRVIGADVDPRVRDVRTEIRLAIEKHNASGQAEAFKRSAVAVYVHPDQRLLHFNATRVYFESTADDALAAALDMSRVETEARKESFRLVELLKREVDGFANIEIVDLGSSVGVRDSRNIVNDHPLTEAMVRDGDKPANSVAYSAWPIEFHGSNTQTHWEPLEGDRYYGIPYESCLPQGIQNALVIGRAISSTPLAQASCRVTAPCIQMGESAGIAAHELVASSSRTAFSELASMKFILEHHHHHH”, the “soluble on expression in E. coli” value was “soluble”.

With “MYVTVTEAAYKKIMDTIPSEAKYIKLFYDNEGCGCVMSGIIDLVAVAEKDERDVDIESSTMNFIADRTKLVFMDDKLTVDWHEGGGTFQLKSPSQFYNPNMKLHVRVLEHHHHHH”, the “soluble on expression in E. coli” value is reported as “soluble”.

Regarding “MAYRDQPLGELALSIPRASALFRQYDMDYCCGGKQTLARAAARHDVDIDIIEAQLAQLAEQPIEKDWRAVPLADIIDHIVVRYHDRHREQLPELILQATKVERVHADKPNVPRGLTKYLTALHEELSSHMMKEEQILFPMIKQGMGRQATGPISVMESEHDEAGELVDVIKHVTKNVTPPPEACTTWKAMYNGINEMIDDLMEHISLENNVLFPRALAGE”, the “soluble on expression in E. coli” value was “not soluble”.

As for “MGIDVVMTNRRGEPPPELSTLPCFPFKWEQQGEQLPLAPAALEGVTHVLNGIPPDRQGEDAVALALLPQLEKLNLHWFGYLSTTGVYGDRQGGWVDETTPVNPQNLRSQHRVRIEQVFLNANLPTHIFRLPGIYGPGEGRNPIARILKGDVQLIDKPGHYFCRIHVADIVQTLERSLAQPTPQEIYNLSDDQPSESLPVLLEAYRLLGRPAPPAIPLEAANLSPMAQSFWRESRRVRNDKIKQALGVQLRYPSYREGLRAIARELGLEHHHHHH”, the “soluble on expression in E. coli” value is recorded as “not soluble”.

As for “MGSDKIHHHHHHMTAPSPEAWLYMLLQTARELELPWLDLIVDQAEMGARWQSRVGALYPPRMLLQDTPHAEAADEGPVLVRLDANQPQTRLLKLLRQWQGQPRVLALFSGWDYDQLAERLTLCMQASWDKGLQQGVLRFHDPRLFAAVVDALDEPRRQLLLEPAVQWHWLDRDGHARMLDATALQSLPPLEWVHDTLTLEQPHIDALACWHLAETWRQNHLLVPQLYGLDSEEELVRRLAQAHQAADKAKLWSEAERIPVVERMLRENA”, the “soluble on expression in E. coli” value is given as “not soluble”.

“MGSDKIHHHHHHMQERLIRLLEAIAGAANPPNATDLAQLTGLPRATIYRNISSLVDCGFVEVTDCGSRYVLGMRFVKIALTGKSDMHVINAVSAMMQQVVKTSGETGFLARYRGGRVDLIHIETPADPSLSYIYPGLGPRPAHACSSAKAIAAFITPELRDELLDIQPMRFNQNTITDPDQIQRELNQVRRYGYAICDGEIDEGVSSVAVPINVDRLGAIFSMGVVGPSNRIKPMVQNRILPVLSAEAVRAAAAIQHCSVVDAETTNAEALADAREGLNKTH”: the “soluble on expression in E. coli” value is “not soluble”.

For “MAIETAILEKIKQYQTIIIHRHQRPDPDCIGSQLALRAILRASFPEKTVVAVGKHYPGFDWMGQADQEVSDDTYHQALVIVVDTANQPRVDDERWQTGAAVIKIDHHPNDDAFGDLQWVLPQASSTSEIIYDWFEANHADLTMPDDAARLLYAGIVGDTGRFMYPATSANTFAVAGKLLAYDFSMTAVNQAEDEISPEMARLSAYAYQNLEILPSGAAYLKLTDEIVESFGLAASDSTSAIVPLPGKITSVVAWAIFVESKDKTFRVRLRSKGPSINELAKRHGGGGHALASGAAAKDQAEIDQVIHELDQLVADTKGENELEHHHHHH”, the “soluble on expression in E. coli” value is given as “soluble”.

In the case of “MGSDKIHHHHHHMEEKKALIIVDVQKAFDDKKWGERNNVKAEENISKILELWREKGWTVIYIQHTSDKPHSLFHPKNEGFAIKEIVKPMDEEVIITKTVNSSFIGTNLEEFLKLNEITTVVITGLTTPHCVSTTTRMSGNLGFDTYLISDATAAFGMRDQNDTYYDAATIHNISLATLHDEFATILTTDQLINDFIKTH”, the “soluble on expression in E. coli” value was “not soluble”.

As to “MAHHHHHHMEESDEDDNIQVIVFGNSSEAKFDDFYREEDIKKEEIQDNINDAMVPNESNEQDKAQNEDVDLESKVQNATKENKVFMKYDYTHEKPWSNHGDKSMWFNYNFDEHTFKEWVQKHIDRKLEKQQNYQIENTDNYFFEDTFKGNMMNTSSVNNQSMQGIKSFPSKNMNPFNTSKLIEHNGSPNYTSNKMDKIKNNNNNNNNKNNSNSNNKNNSNNKNNSNSNNRSDINQTTTNTNNDLKQFQNLINFLKQNN”, the “soluble on expression in E. coli” value is given as “not soluble”.

Take “SLDAAVGDVIVTLGADLSESDKQKVLDEMNVPDNATTVTVTNKEEHEYLGKYISNAQIGSRAISSSSITIAKKGSGLNVETHNISGITDEMYLNALMTAGVKDAKVYVTAPFEVSGTAALTGLIKAYEVSSDEAISEDVKQVANQELVTTSELGDKIGNENAAALIAKIKEEFAKNGVPDNKADIEKQVDDAASDLNVTLTDSQKNQLVSLFNKMKNADIDWGQVSDQLDKAKDKITKFIESDEGKNFIQKVIDFFVSIWNAIVSIFK”: the “soluble on expression in E. coli” value is on record as “soluble”.

As to “MHHHHHHAMDTYKLFIVIGDRVVVVTTEAVDAATAEKVFKQYANDNGVDGEWTYDDAAKTFTVTE”, the “soluble on expression in E. coli” value is recorded as “soluble”.

In the case of “MGQSWGYEGIAKRSLCTHKWLYNLNLHSINLFLPIESKMSAQASRQKKSDQEQRAADQALLNAAIEDNAMEQDENFTVIDKLESSGISSGDISKLKEAGYYTYESLAFTTRRELRNVKGISDQKAEKIMKEAMKFVQMGFTTGAEVHVKRSQLVQIRTGSASLDRLLGGGIETGSITEVYGEYRTGKTQLCHSLAVLCQLPIDMGGGEGKCMYIDTNATFRPERIIAIAQRYNMDSAHVLENIAVARAYNSEHLMALIIRAGAMMSESRYAVVIVDCATAHFRNEYTGRGDLAERQMKLSAFLKCLAKLADEYGVAVIITNQVVAQVDGGASMFQADAKKPIGGHIIAHMSTTRLYLRKGKGENRVAKMVQSPNLPEAEATYSITNHGIEDARED”, the “soluble on expression in E. coli” value was “soluble”.
